Test results published in patent publication US20100256338A1 (Hoffmann-La Roche, published 2010).

What was measured:
[1] = target: T1, EGFR-ECD (human, UniProt P00533 25-645); assay: SPR (Biacore T100), antibody captured by anti-human IgG, EGFR-ECD as analyte, 25 C
T1 construct: extracellular domain; also called human EGF-Receptor

[2] = target: T2, IGF-1R (soluble analyte in SPR) (human, UniProt P08069 31-932, limits assumed); assay: SPR (Biacore T100), antibody captured by anti-human IgG, IGF-1R as analyte, 25 C
T2 construct: also called human IGF1-Receptor

| Kd [1] | Kd [2] | Binder |
| --- | --- | --- |
| 0.5 nM | – | humanized <EGFR>ICR62 (antibody, V domains shown, Humanized rat anti-EGFR antibody, 'wildtype' IgG parent; also called humanized rat anti-EGFR antibody <EGFR>ICR62) VH: QVQLVQSGAEVKKPGSSVKVSCKASGFTFTDYKIHWVRQAPGQGLEWMGYFNPNSGYSTYAQKFQGRVTITADKSTSTAYMELSSLRSEDTAVYYCARLSPGGYYVMDAWGQGTTVTVSS VL: DIQMTQSPSSLSASVGDRVTITCRASQGINNYLNWYQQKPGKAPKRLIYNTNNLQTGVPSRFSGSGSGTEFTLTISSLQPEDFATYYCLQHNSFPTFGQGTKLEIKR |
| 0.5 nM | 11 nM | scFab-XGFR2_2720 (bispecific antibody) chain 1: not shown chain 2: DIQMTQSPSSLSASVGDRVTITCRASQGINNYLNWYQQKPGKAPKRLIYNTNNLQTGVPSRFSGSGSGTEFTLTISSLQPEDFATYYCLQHNSFPTFGQGTKLEIKRTVAAPSVFIFPPSDEQLKSGTASVVCLLNNFYPREAKVQWKVDNALQSGNSQESVTEQDSKDSTYSLSSTLTLSKADYEKHKVYACEVTHQGLSSPVTKSFNRGEC |
